In patent US9393271B2, “GHRH agonists for islet cell transplantation and function and the treatment of diabetes” (UNIVERSITY OF MIAMI, priority 2012, dated 2016):
Non-standard residues stand in square brackets, D forms with d. No end group written: not given here. *: point of attachment. Phe(F5) = N[C@@H](Cc1c(F)c(F)c(F)c(F)c1F)C(=O)O; Desaminotyrosyl = O=C(CCc1ccc(O)cc1)*; NMeY = CN[C@@H](Cc1ccc(O)cc1)C(=O)O; Agmatine = N=C(N)NCCCCN*; NMeA = CN[C@@H](C)C(=O)O; Nle = CCCC[C@H](N)C(=O)O; Orn = NCCC[C@H](N)C(=O)O; Abu = CC[C@H](N)C(=O)O; Aoc = NCCCCCCCC(=O)O; Ava = NCCCCC(=O)O; GABA = NCCCC(=O)O

T1: GHRH receptor in human pituitary membrane homogenates (human, UniProt Q02643)
T1 sequence: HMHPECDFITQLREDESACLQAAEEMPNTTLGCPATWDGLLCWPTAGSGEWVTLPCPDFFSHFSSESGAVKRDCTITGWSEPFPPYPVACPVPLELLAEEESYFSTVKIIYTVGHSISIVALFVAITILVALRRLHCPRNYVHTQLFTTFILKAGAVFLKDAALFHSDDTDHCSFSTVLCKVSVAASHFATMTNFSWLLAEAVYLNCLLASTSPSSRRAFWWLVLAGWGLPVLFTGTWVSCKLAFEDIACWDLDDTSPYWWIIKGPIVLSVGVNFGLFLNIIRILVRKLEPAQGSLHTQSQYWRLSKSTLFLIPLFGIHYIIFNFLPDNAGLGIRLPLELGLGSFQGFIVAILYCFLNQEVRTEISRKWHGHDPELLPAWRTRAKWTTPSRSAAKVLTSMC

B1: [N-Me-Tyr1, Gln8, Orn12, Abu15, Orn21, Nle27, Asp28, Apa30]hGHRH(1-30)NH2 (peptide)
peptide: [NMeY]ADAIFTQSYR[Orn]VL[Abu]QLSAR[Orn]LLQDI[Nle]DR[Ava]-NH2
B2: [N-Me-Tyr1, Orn12, Abu15, Orn21, Nle27, Asp28, Amc30]hGHRH(1-30)NH2 (peptide)
peptide: [NMeY]ADAIFTNSYR[Orn]VL[Abu]QLSAR[Orn]LLQDI[Nle]DR[Aoc]-NH2
modifications: N-terminus assumed
SMILES: CCCC[C@H](NC(=O)[C@@H](NC(=O)[C@H](CC(=O)O)NC(=O)[C@H](CCC(N)=O)NC(=O)[C@H](CC(C)C)NC(=O)[C@H](CC(C)C)NC(=O)[C@H](CCCN)NC(=O)[C@H](CCCNC(=N)N)NC(=O)[C@H](C)NC(=O)[C@H](CO)NC(=O)[C@H](CC(C)C)NC(=O)[C@H](CCC(N)=O)NC(=O)[C@H](CC)NC(=O)[C@H](CC(C)C)NC(=O)[C@@H](NC(=O)[C@H](CCCN)NC(=O)[C@H](CCCNC(=N)N)NC(=O)[C@H](Cc1ccc(O)cc1)NC(=O)[C@H](CO)NC(=O)[C@H](CC(N)=O)NC(=O)[C@@H](NC(=O)[C@H](Cc1ccccc1)NC(=O)[C@@H](NC(=O)[C@H](C)NC(=O)[C@H](CC(=O)O)NC(=O)[C@H](C)NC(=O)[C@H](Cc1ccc(O)cc1)NC)[C@@H](C)CC)[C@@H](C)O)C(C)C)[C@@H](C)CC)C(=O)N[C@@H](CC(=O)O)C(=O)N[C@@H](CCCNC(=N)N)C(=O)NCCCCCCCC(N)=O
B3: [N-Me-Tyr1, D-Ala2, Fpa5-6, Orn12, Abu15, Orn21, Nle27, Asp28, Agm29]hGHRH(1-29) (peptide)
peptide: [NMeY][dA]DAI[Phe(F5)]TNSYR[Orn]VL[Abu]QLSAR[Orn]LLQDI[Nle]D[Agmatine]
B4: [N-Me-Tyr1, D-Ala2, Gln8, Orn12, Abu15, Orn21, Nle27, Asp28, Agm29]hGHRH(1-29) (peptide)
peptide: [NMeY][dA]DAIFTQSYR[Orn]VL[Abu]QLSAR[Orn]LLQDI[Nle]D[Agmatine]
B5: [Ac-N-Me-Tyr1, D-Ala2, Gln8, Orn12, Abu15, Orn21, Nle27, Asp28, Agm29]hGHRH(1-29) (peptide)
peptide: Ac-[NMeY][dA]DAIFTQSYR[Orn]VL[Abu]QLSAR[Orn]LLQDI[Nle]D[Agmatine]
SMILES: CCCC[C@H](NC(=O)[C@@H](NC(=O)[C@H](CC(=O)O)NC(=O)[C@H](CCC(N)=O)NC(=O)[C@H](CC(C)C)NC(=O)[C@H](CC(C)C)NC(=O)[C@H](CCCN)NC(=O)[C@H](CCCNC(=N)N)NC(=O)[C@H](C)NC(=O)[C@H](CO)NC(=O)[C@H](CC(C)C)NC(=O)[C@H](CCC(N)=O)NC(=O)[C@H](CC)NC(=O)[C@H](CC(C)C)NC(=O)[C@@H](NC(=O)[C@H](CCCN)NC(=O)[C@H](CCCNC(=N)N)NC(=O)[C@H](Cc1ccc(O)cc1)NC(=O)[C@H](CO)NC(=O)[C@H](CCC(N)=O)NC(=O)[C@@H](NC(=O)[C@H](Cc1ccccc1)NC(=O)[C@@H](NC(=O)[C@H](C)NC(=O)[C@H](CC(=O)O)NC(=O)[C@@H](C)NC(=O)[C@H](Cc1ccc(O)cc1)N(C)C(C)=O)[C@@H](C)CC)[C@@H](C)O)C(C)C)[C@@H](C)CC)C(=O)N[C@@H](CC(=O)O)C(=O)NCCCCNC(=N)N
B6: [N-Me-Tyr1, Gln8, Orn12, Abu15, Orn21, Nle27]hGHRH(1-29)NH-CH3 (peptide)
peptide: [NMeY]ADAIFTQSYR[Orn]VL[Abu]QLSAR[Orn]LLQDI[Nle]SR-NHMe
modifications: not fully specified
B7: [N-Me-Tyr1, D-Ala2, Fpa5-6, Orn12, Abu15, Orn21, Nle27, Asp28]hGHRH(1-29)NH-CH3 (peptide)
peptide: [NMeY][dA]DAI[Phe(F5)]TNSYR[Orn]VL[Abu]QLSAR[Orn]LLQDI[Nle]DR-NHMe
B8: [Dat1, D-Ala2, N-Me-Ala8, Orn12, Abu15, Orn21, Nle27, Asp28, Agm29]hGHRH(1-29) (peptide)
peptide: [Desaminotyrosyl][dA]DAIFT[NMeA]SYR[Orn]VL[Abu]QLSAR[Orn]LLQDI[Nle]D[Agmatine]
SMILES: CCCC[C@H](NC(=O)[C@@H](NC(=O)[C@H](CC(=O)O)NC(=O)[C@H](CCC(N)=O)NC(=O)[C@H](CC(C)C)NC(=O)[C@H](CC(C)C)NC(=O)[C@H](CCCN)NC(=O)[C@H](CCCNC(=N)N)NC(=O)[C@H](C)NC(=O)[C@H](CO)NC(=O)[C@H](CC(C)C)NC(=O)[C@H](CCC(N)=O)NC(=O)[C@H](CC)NC(=O)[C@H](CC(C)C)NC(=O)[C@@H](NC(=O)[C@H](CCCN)NC(=O)[C@H](CCCNC(=N)N)NC(=O)[C@H](Cc1ccc(O)cc1)NC(=O)[C@H](CO)NC(=O)[C@H](C)N(C)C(=O)[C@@H](NC(=O)[C@H](Cc1ccccc1)NC(=O)[C@@H](NC(=O)[C@H](C)NC(=O)[C@H](CC(=O)O)NC(=O)[C@@H](C)NC(=O)CCc1ccc(O)cc1)[C@@H](C)CC)[C@@H](C)O)C(C)C)[C@@H](C)CC)C(=O)N[C@@H](CC(=O)O)C(=O)NCCCCNC(=N)N
B9: [N-Me-Tyr1, Gln8, Orn12, Abu15, Orn21, Nle27, Gln-Gab30]hGHRH(1-30)NH2 (peptide)
peptide: [NMeY]ADAIFTQSYR[Orn]VL[Abu]QLSAR[Orn]LLQDI[Nle]SRQ-{GABA-NH2}
B10: [Dat1, Gln8, Orn12, Abu15, Orn21, Nle27, Asp28, Apa30]hGHRH(1-30)NH2 (peptide)
peptide: [Desaminotyrosyl]ADAIFTQSYR[Orn]VL[Abu]QLSAR[Orn]LLQDI[Nle]DR[Ava]-NH2
SMILES: CCCC[C@H](NC(=O)[C@@H](NC(=O)[C@H](CC(=O)O)NC(=O)[C@H](CCC(N)=O)NC(=O)[C@H](CC(C)C)NC(=O)[C@H](CC(C)C)NC(=O)[C@H](CCCN)NC(=O)[C@H](CCCNC(=N)N)NC(=O)[C@H](C)NC(=O)[C@H](CO)NC(=O)[C@H](CC(C)C)NC(=O)[C@H](CCC(N)=O)NC(=O)[C@H](CC)NC(=O)[C@H](CC(C)C)NC(=O)[C@@H](NC(=O)[C@H](CCCN)NC(=O)[C@H](CCCNC(=N)N)NC(=O)[C@H](Cc1ccc(O)cc1)NC(=O)[C@H](CO)NC(=O)[C@H](CCC(N)=O)NC(=O)[C@@H](NC(=O)[C@H](Cc1ccccc1)NC(=O)[C@@H](NC(=O)[C@H](C)NC(=O)[C@H](CC(=O)O)NC(=O)[C@H](C)NC(=O)CCc1ccc(O)cc1)[C@@H](C)CC)[C@@H](C)O)C(C)C)[C@@H](C)CC)C(=O)N[C@@H](CC(=O)O)C(=O)N[C@@H](CCCNC(=N)N)C(=O)NCCCCC(N)=O
B11: [N-Me-Tyr1, Gln8, Orn12, Abu15, Orn21, Nle27, Asp28]hGHRH(1-29)NH-CH3 (peptide)
peptide: [NMeY]ADAIFTQSYR[Orn]VL[Abu]QLSAR[Orn]LLQDI[Nle]DR-NHMe
modifications: not fully specified
B12: [Dat1, Gln8, Orn12, Abu15, Orn21, Nle27, Asp28]hGHRH(1-29)NH-CH3 (peptide)
peptide: [Desaminotyrosyl]ADAIFTQSYR[Orn]VL[Abu]QLSAR[Orn]LLQDI[Nle]DR-NHMe
modifications: not fully specified
B13: [N-Me-Tyr1, D-Ala2, Orn12, Abu15, Orn21, Nle27, Asp28, Agm29]hGHRH(1-29) (peptide)
peptide: [NMeY][dA]DAIFTNSYR[Orn]VL[Abu]QLSAR[Orn]LLQDI[Nle]D[Agmatine]

Target: T1, GHRH receptor in human pituitary …
Experiment: ligand competition, 125I-JV-1-42 displaced, human pituitary membranes

Binder	IC50 [nM]	relative affinity (binding potency) vs JI-38 [JI-38 = 1]
B1	3.8	1.14
B2	2.99	1.45
B3	3.05	1.43
B4	0.82	5.3
B5	3.44	1.26
B6	1.08	4.03
B7	0.87	5
B8	0.86	5.06
B9	1.22	3.57
B10	1.99	2.18
B11	0.3	14.5
B12	3	1.45
B13	1.7	2.56
